The values that follow come from publication PMC6126647.

This series concerns the target MmCPDII (class II CPD photolyase) (UniProt Q8PYK9 1-464). Description: X-ray crystallography (2.7 A); oxidized FAD; dark, unrepaired CPD; Co-crystallization: protein in 10 mM Tris-HCl pH 8.0, 100 mM NaCl with 1.25x dsDNA (in 100 mM Tris-HCl pH 8.0, 100 mM NaCl), 30 min in dark; mixed 1:1 with 0.1.

B1: 14-mer duplex with natural phosphodiester-linked cis-syn CPD (PDM DNA) (dsDNA)
DNA 1: ATCGGCTTCGCGCA
DNA 2: TGCGCGAAGCCGAT
modifications: cis-syn cyclobutane thymine dimer T7<>T8 in strand 1, natural intra-lesion phosphodiester
For the molecule B1, the binding result is reported as “binds”.
